The chains are these.
B1: human lipoyl synthase (LIAS), amino acids 28-372, holo form (enzyme)
chain: GHLSSLPDKKKELLQNGPDLQDFVSGDLADRSTWDEYKGNLKRQKGERLRLPPWLKTEIPMGKNYNKLKNTLRNLNLHTVCEEARCPNIGECWGGGEYATATATIMLMGDTCTRGCRFCSVKTARNPPPLDASEPYNTAKAIAEWGLDYVVLTSVDRDDMPDGGAEHIAKTVSYLKERNPKILVECLTPDFRGDLKAIEKVALSGLDVYAHNVETVPELQSKVRDPRANFDQSLRVLKHAKKVQPDVISKTSIMLGLGENDEQVYATMKALREADVDCLTLGQYMQPTRRHLKVEEYITPEKFKYWEKVGNELGFHYTASGPLVRSSYKAGEFFLKNLVAKRKTKDL
notes: Gly-His N-terminal appendage left after removal of the His6-SUMO tag; Holo form with two [4Fe-4S] clusters; also called holo-LIAS; source: E. coli BL21 (DE3) with pDB1282, purified under anoxic conditions (Ni-IMAC, SUMO tag removed with ULP1, SEC); not shown: His6, N-terminal, cleaved; SUMO, N-terminal, cleaved
B2: human NFU1, amino acids 59-254, holo form (domain or fragment)
chain: GHMFIQTQDTPNPNSLKFIPGKPVLETRTMDFPTPAAAFRSPLARQLFRIEGVKSVFFGPDFITVTKENEELDWNLLKPDIYATIMDFFASGLPLVTEETPSGEAGSEEDDEVVAMIKELLDTRIRPTVQEDGGDVIYKGFEDGIVQLKLQGSCTSCPSSIITLKNGIQNMLQFYIPEVEGVEQVMDDESDEKEANSP
notes: Gly-His N-terminal appendage left after removal of the His6-SUMO tag; NFU1, human, Q9UMS0 (full length 1-254), N-terminally truncated variant, amino acids 59-254; Holo form with a [4Fe-4S] cluster; also called holo-NFU1; NFUI; source: E. coli BL21 (DE3) with pDB1282, purified under anoxic conditions (Ni-IMAC, SUMO tag removed with ULP1, SEC); not shown: His6, N-terminal, cleaved; SUMO, …

Assay [1] deals with B2. In words: SEC; HiPrep 16/60 Sephacryl HR S-200 in an anaerobic glovebox, 0.5 mL/min; 50 mM HEPES pH 7.5, 250 mM KCl, 10% glycerol, 2.5 mM TCEP, 10 mM BME; holo-LIAS alone (100 uM), holo-NFU1 alone (200 uM) and a 1:1 mixture; masses from a calibration curve; peak fractions checked by SDS-PAGE. Conditions: both partners purified.
In assay [2] the target is B1. In words: ITC; 2 uL injections of LIAS (150 uM, syringe) into NFU1 (19 uM, cell) at 27 °C, anaerobic; 0.1 M HEPES pH 7.5, 0.5 M KCl, 5% glycerol, 2 mM TCEP. Conditions: both partners purified.

Usually stoichiometry N stands for the number of molecules, sites or subunits per partner or assembly. Turning to B1, in assay [1], the “stoichiometry N” value amounted to 1.
For orientation: Kd means the concentration at which binding is half-saturated. B2 registered a Kd in assay [2] of 700 ± 200 nM.

Source of the values: paper PMC9585516, “In Vitro Demonstration of Human Lipoyl Synthase Catalytic Activity in the Presence of NFU1” (ACS Bio & Med Chem Au, 2022).
